From patent US20260242485A1 (LEPU BIOPHARMA, published 2026) come the findings set out here.

Positions count from the first letter of the chain named.

The target in assay [1] is T1, cynomolgus CD16 expressed on CHO-K1 cells (cynomolgus, UniProt Q8SPW2 17-254).
T1 construct: whole, on cells; also called cyno CD16; CHO-K1-cynoCD16
The assay can be described thus: flow cytometry, CHO-K1-cyno CD16 cells, geometric mean. How it is done: (§1) In order to evaluate the binding activity of the chimeric mAbs to human CD16A expressed on cells, cell-based binding assay was employed as followed. […] The antibody dilutions were incubated with 1×10⁵ indicated cells in the 96-well microplate for one hour at 4° C. The antibodies binding to the antigen on the cell surface were detected with PE fluorophore-conjugated anti-human IgG Fc secondary antibodies (ThermoFisher scientific, Cat. No. 12-4998-82) at a dilution rate of 1:1000. Cells were analyzed by flow cytometer LSRFortessa Cell Analyzer (BD Biosciences). Data were analyzed with Flowjo 10.0 software. The graph and statistics analysis were generated with four-parameter nonlinear regression curve fit in Graphpad Prism 9 software.
(§2) The assay was performed following the protocol described above.

Assay [2] deals with T2, human CD16A-158V expressed on CHO-K1 cells (human, UniProt P08637 17-254).
T2 construct: whole, on cells; also called hCD16A-158V; CHO-K1-hCD16A-158V
T2 sequence (P08637 17-254 F176V): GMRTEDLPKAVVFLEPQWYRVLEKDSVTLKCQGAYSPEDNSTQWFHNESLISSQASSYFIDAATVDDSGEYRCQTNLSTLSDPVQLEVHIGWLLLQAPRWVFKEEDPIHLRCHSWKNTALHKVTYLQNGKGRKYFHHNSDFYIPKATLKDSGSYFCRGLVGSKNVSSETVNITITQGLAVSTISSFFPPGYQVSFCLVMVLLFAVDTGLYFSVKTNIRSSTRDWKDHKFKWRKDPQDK
The assay is described as follows: flow cytometry, CHO-K1-hCD16A-158V cells, geometric mean. How it is done:
as §1, §2
A general note: In flow cytometry, cells or beads pass a laser one at a time.

Assay [3] deals with T3, human CD16A-158F expressed on CHO-K1 cells (human, UniProt P08637 17-254).
T3 construct: whole, on cells
T3 sequence (P08637 17-254): as the sequence (P08637 17-254 F176V) above, with V160F counted along it
The assay can be described thus: flow cytometry, CHO-K1-hCD16A-158F cells, geometric mean. How it is done: as §1, §2

The target in assay [4] is T1, cynomolgus CD16 expressed on CHO-K1 …. The assay is described as follows: flow cytometry, CHO-K1-cyno CD16 cells, Alexa Fluor 647 anti-human IgG Fc, geometric mean. How it is done:
as §1
(§3) The assay was performed following the protocol described above. The antibodies binding to the antigen on the cell surface were detected with Alexa Fluor® 647 AffiniPure™ F(ab′)₂ fragment goat anti-human IgG Fcγ fragment specific secondary antibody (Jackson Immuno Research, Cat. No. 109-606-098) at a dilution rate of 1:2000.

In assay [5] the target is T2, human CD16A-158V expressed on CHO-K1 …. The assay is described as follows: flow cytometry, CHO-K1-hCD16A-158V cells, Alexa Fluor 647 anti-human IgG Fc, geometric mean. Here is the method: as §1, §3
For assay [6], the target named is T3, human CD16A-158F expressed on CHO-K1 …. The assay is described as follows: flow cytometry, CHO-K1-hCD16A-158F cells, Alexa Fluor 647 anti-human IgG Fc, geometric mean. Here is the method:
as §1, §3

The target of assay [7] is T4, human GPC3 on HepG2 cells (human, UniProt P51654 25-554).
T4 construct: whole, on cells; also called GPC3-positive HepG2 cells
T4 sequence (P51654 25-554 limits assumed): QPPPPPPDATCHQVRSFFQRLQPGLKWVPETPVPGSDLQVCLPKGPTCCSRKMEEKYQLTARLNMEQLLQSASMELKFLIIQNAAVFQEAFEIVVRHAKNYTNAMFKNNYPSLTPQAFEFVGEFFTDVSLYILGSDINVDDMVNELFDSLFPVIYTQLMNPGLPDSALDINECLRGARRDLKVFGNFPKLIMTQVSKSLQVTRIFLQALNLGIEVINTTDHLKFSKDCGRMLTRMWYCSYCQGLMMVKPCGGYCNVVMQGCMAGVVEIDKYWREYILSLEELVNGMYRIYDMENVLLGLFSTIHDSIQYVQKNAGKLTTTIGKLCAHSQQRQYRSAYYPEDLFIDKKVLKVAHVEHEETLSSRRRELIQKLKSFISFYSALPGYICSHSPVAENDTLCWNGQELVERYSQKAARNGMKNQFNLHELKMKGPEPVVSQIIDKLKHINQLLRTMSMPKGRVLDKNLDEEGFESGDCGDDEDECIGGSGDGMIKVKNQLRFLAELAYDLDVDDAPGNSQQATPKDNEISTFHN
The assay is described as follows: flow cytometry, HepG2 cells (GPC3 positive), geometric mean.

The target in assay [8] is T2, human CD16A-158V expressed on CHO-K1 …. The assay is described as follows: flow cytometry, CHO-K1-hCD16A-158V cells, geometric mean. An excerpt:
(§4) The purpose of the assay was to evaluate the binding of BsAb to each of the hFcγRs.
The source holds these as a separate data set.

Assay [9] addresses T3, human CD16A-158F expressed on CHO-K1 …. The assay is described as follows: flow cytometry, CHO-K1-hCD16A-158F cells, geometric mean.
Excerpt: as §4
This is another data set of the same source.

For assay [10] the target is unchanged. The assay is described as above. This is another data set of the same source.

T1 sequence (Q8SPW2 17-254): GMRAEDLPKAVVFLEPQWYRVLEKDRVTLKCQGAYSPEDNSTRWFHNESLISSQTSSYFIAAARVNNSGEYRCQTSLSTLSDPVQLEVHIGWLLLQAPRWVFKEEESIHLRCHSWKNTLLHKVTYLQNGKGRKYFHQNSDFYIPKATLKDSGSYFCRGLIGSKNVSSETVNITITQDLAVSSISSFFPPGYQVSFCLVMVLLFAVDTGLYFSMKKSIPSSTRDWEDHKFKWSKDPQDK

B1: 45H6E8-z21 (antibody, human IgG1, V domains shown)
VH: QVQLVQSGAEVKKPGASVKVSCKVSGYTLTDYYMQWVRQAPGKGLEWMGWIDPENGDTEYAPKFQGRVTMTADTSTDTAYMELSSLRSEDTAVYYCTTGGNYVDWGQGTTVTVSS
VL: DIQMTQSPSFLSASVGDRVTITCKASQNVGTAVAWYQQKPGKAPKLLIYSASNRYTGVPDRFSGSGSGTDFTLTISSLQPEDFATYFCQQYSSYPLLTFGQGTRLEIK
notes: Human IgG1 LALAPG constant region; also called HU-VH1-8 / HU-VL1-3
Take B1: the “EC50 (read off the curve)” value was about 0.7 nM in [1]; about 0.4 nM in assay [2]; about 0.4 nM in [3]; about 1 nM in assay [4]; about 0.4 nM in [5]; about 0.4 nM in assay [6].

B2: 45H6E8-z21p1 (antibody, V domains shown)
VH: B1 VH with N55Q
VL: B1 VL
notes: PTM-removed version of z21
As for B2, in assay [7], the binding result is “no binding (tested: 100 nM)”.

B3: CCR8-hIgG1 mAb (antibody)
VH: not shown
VL: DIVMTQSPLSLPVTPGEPASISCRSSKSLLHSNANTYLYWYLQKPGQSPQLLIYRMSNLASGVPDRFSGSGSGTAFTLKISRVEAEDVGVYYCMQHLEYPFTFGGGTKLEIKRTVAAPSVFIFPPSDEQLKSGTASVVCLLNNFYPREAKVQWKVDNALQSGNSQESVTEQDSKDSTYSLSSTLTLSKADYEKHKVYACEVTHQGLSSPVTKSFNRGEC
notes: Wildtype human IgG1; also called anti-hCCR8 monoclonal antibody with wildtype Fc hIgG1
As for B3, the EC50 was 5.2 nM in assay [8] and 20 nM in assay [9].

B4: CCR8-45H6E8-hIgG1LALAPG (bispecific antibody)
heavy: EVQLVESGGGLVQPGGSLRLSCAASGFSFNTYVMNWVRQAPGKGLEWVARIRTKSNNYATFYVDSVKDRFTISRDDSKNSLYLQMNSLKTEDTAVYYCVSGTITRLGAGLDYWGQGTLVTVSSASTKGPSVFPLAPSSKSTSGGTAALGCLVKDYFPEPVTVSWNSGALTSGVHTFPAVLQSSGLYSLSSVVTVPSSSLGTQTYICNVNHKPSNTKVDKKVEPKSCDKTHTCPPCPAPEAAGGPSVFLFPPKPKDTLMISRTPEVTCVVVDVSHEDPEVKFNWYVDGVEVHNAKTKPREEQYNSTYRVVSVLTVLHQDWLNGKEYKCKVSNKALGAPIEKTISKAKGQPREPQVYTLPPSREEMTKNQVSLTCLVKGFYPSDIAVEWESNGQPENNYKTTPPVLDSDGSFFLYSKLTVDKSRWQQGNVFSCSVMHEALHNHYTQKSLSLSPGKGGGGSGGGGSGGGGSEVQLQQSGAELVRSGASVKLSCTASGFNIKDYYMQWVKQRPEQGLEWIGWIDPENGDTEYAPKFQGKATMTADTSSNTAYLQLSSLTSEDTAVYYCTTGGNYVDWGQGTTLTVSSGGGGSGGGGSGGGGSDIVMTQSQKFMSTSVGDRVSITCKASQNVGTAVAWYQQKPGQSPKLLIYSASNRYTGVPDRFTGSGSGTDFTLTISNMQSEDLADYFCQQYSSYPLLTFGAGTNLELK
light: B3 VL
notes: to be checked; also called CCR8-45H6E8-hIgG1LALAPG BsAb; CCR8-45H6E8 LALAPG BsAb
As for B4, the EC50 in assay [8] came out at 0.57 nM; in [9] it was 0.29 nM.

B5: GPC3-hIgG1DE (antibody)
chain 1: not shown
chain 2: DIVMTQTPLSLSVTPGQPASISCRSSQSLVHSNGNTYLQWYLQKPGQSPQLLIYKVSNRFSGVPDRFSGSGSGTDFTLKISRVEAEDVGVYYCFQSIHVPYTFGGGTKLEIKRTVAAPSVFIFPPSDEQLKSGTASVVCLLNNFYPREAKVQWKVDNALQSGNSQESVTEQDSKDSTYSLSSTLTLSKADYEKHKVYACEVTHQGLSSPVTKSFNRGEC
Regarding B5, the “EC50 (read off the curve)” value in assay [7] was about 0.3 nM.

B6: GPC3-hIgG1 (antibody)
heavy: not shown
light: B5 chain 2
notes: also called GPC3-hIgG1 mAb with wild-type Fc region
B6: the binding result in assay [10] is listed as “no binding (tested: 100 nM)”. Also, the “EC50 (read off the curve)” value in assay [7] is about 0.3 nM.

One may read the EC50 (read off the curve) as the concentration needed to bring the measured effect to its halfway point. Read a high EC50 (read off the curve) as lower potency in that assay. As usually defined, the EC50 is the concentration that produces a half-maximal response. The low end stands for higher potency in that assay, the high end for lower potency in that assay.
